Data taken from patent US20210363269A1 (ALX ONCOLOGY, published 2021).
Positions count from the first letter of the chain named. Names may count otherwise.

How the values were obtained:
[1] = biological target: T1, cynomolgus SIRP-α D1 domain (cyno1) (cynomolgus monkey, UniProt Q5TFQ8 30-148 (human entry), limits assumed); assay: SPR
T1 chain: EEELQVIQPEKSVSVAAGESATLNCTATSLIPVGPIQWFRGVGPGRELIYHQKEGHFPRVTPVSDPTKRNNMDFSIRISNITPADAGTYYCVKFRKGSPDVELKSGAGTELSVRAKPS
Procedure, shortened: (§1)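 Dissociation rate constants (koff) were measured on a ProteOn XPR36 instrument by Langmuir model fitting. Antibody clones in scFv-Fc format were captured from pre-filtered culture media onto a GLC chip with about 4000 RU of amine-coupled anti-human IgG Fc. SIRP analytes ran in PBS pH 7.4 with 0.01% Tween-20 at 25° C, and the model used was 1:1, applied to data double-referenced against interspot and buffer-blank responses.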

[2] = biological target: T2, cynomolgus SIRP-α D1 domain (cyno2) (cynomolgus monkey, UniProt Q5TFQ8 30-148 (human entry), limits assumed); assay: SPR
T2 chain: T1 chain with E19D, A27V, T28S, V42A, H51N, Q52L, P62A
Procedure, shortened: as §1

[3] = biological target: T3, mouse 129 SIRP-α D1 domain (mouse (129 strain), UniProt P97797 32-150); assay: SPR
T3 construct: also called m129
T3 chain: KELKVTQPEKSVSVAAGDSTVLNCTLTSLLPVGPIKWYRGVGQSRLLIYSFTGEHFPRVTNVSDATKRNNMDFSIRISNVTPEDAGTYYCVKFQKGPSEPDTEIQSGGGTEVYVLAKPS
Procedure, shortened: as §1

[4] = biological target: T4, NOD mouse SIRP-α D1 domain (mouse (NOD strain)); assay: SPR
T4 chain: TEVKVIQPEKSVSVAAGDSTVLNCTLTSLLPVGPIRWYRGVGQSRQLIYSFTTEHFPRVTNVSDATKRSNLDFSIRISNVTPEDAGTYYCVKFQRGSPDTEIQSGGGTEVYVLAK
Procedure, shortened: as §1

[5] = biological target: T5, C57BL/6 mouse SIRP-α D1 domain (mouse (C57BL/6 strain), UniProt P97797 32-148); assay: SPR
T5 sequence: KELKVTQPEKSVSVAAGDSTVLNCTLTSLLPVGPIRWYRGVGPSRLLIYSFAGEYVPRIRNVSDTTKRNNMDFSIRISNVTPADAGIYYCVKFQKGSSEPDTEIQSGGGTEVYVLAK
Procedure, shortened: as §1

[6] = biological target: T6, high affinity SIRP-α D1 variant CV1-3; assay: SPR, Langmuir fit
T6 chain: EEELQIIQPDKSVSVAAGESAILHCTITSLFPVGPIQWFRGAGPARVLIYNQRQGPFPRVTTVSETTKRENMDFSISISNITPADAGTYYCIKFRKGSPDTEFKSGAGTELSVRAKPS
Procedure, shortened: as §1

[7] = biological target: T7, human SIRP-α v2 D1 domain (human); assay: SPR
T7 construct: also called human v2
Procedure, shortened: as §1

human SIRPβ isoform 1 [8] = biological target: T8, human SIRPβ isoform 1 (human, UniProt O00241 30-148); assay: SPR
T8 construct: also called SIRPb; sirpb1
Procedure, shortened: as §1
T8 sequence (O00241 30-148 limits assumed): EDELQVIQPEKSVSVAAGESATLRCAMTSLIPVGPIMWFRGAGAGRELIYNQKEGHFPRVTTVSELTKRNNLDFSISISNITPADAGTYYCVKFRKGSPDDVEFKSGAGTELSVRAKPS

[9] = biological target: T9, human SIRP-α v1 D1 domain (human, UniProt P78324 31-149); assay: SPR, Langmuir fit
T9 construct: also called human v1
Procedure, shortened: as §1
T9 sequence (P78324 31-149 limits assumed): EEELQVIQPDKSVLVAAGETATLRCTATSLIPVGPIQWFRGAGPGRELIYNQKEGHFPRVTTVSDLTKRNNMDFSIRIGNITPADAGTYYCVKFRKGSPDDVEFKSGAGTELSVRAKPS

[10] = biological target: T1, cynomolgus SIRP-α D1 domain (cyno1); assay: SPR, Langmuir fit
Procedure, shortened: as §1

[11] = biological target: T2, cynomolgus SIRP-α D1 domain (cyno2); assay: SPR, Langmuir fit
Procedure, shortened: as §1

human SIRP-α v1 [12] = biological target: T10, human SIRP-α v1 (human, UniProt P78324 31-149); assay: SPR
T10 construct: also called Human v1; Human V1
T10 sequence (P78324 31-149 limits assumed): as above
Procedure, shortened: (§2)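 Purified antibodies were either amine-coupled to a GLC chip or captured via biotinylated Protein A on an NLC chip of a ProteOn XPR36 biosensor. Runs were at 25° C in PBS pH 7.4 with 0.01% Tween-20. SIRP analytes were injected in one-shot kinetic mode at nominal concentrations set by A280 absorbance. Double-referenced data were fitted globally to a simple Langmuir model, giving apparent rate constants, with KD taken as kd/ka.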

human SIRP-α v2 [13] = biological target: T11, human SIRP-α v2 (human); assay: SPR
T11 construct: also called Human v2; Human V2
T11 sequence (chain, as listed by the source limits assumed): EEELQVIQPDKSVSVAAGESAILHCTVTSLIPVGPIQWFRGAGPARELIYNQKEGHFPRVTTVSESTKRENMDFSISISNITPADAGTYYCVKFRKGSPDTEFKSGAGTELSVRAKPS
Procedure, shortened: as §2

human SIRP-α v1 [14] = biological target: T10, human SIRP-α v1; assay: SPR, antibody on GLC chip
Procedure, shortened: (§3)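 On a ProteOn XPR36 biosensor, Protein A-purified antibodies were amine-coupled to a GLC chip at about ~1000 RU after dilution to 80 nM in 10 mM sodium acetate pH 4.5. SIRP analytes at 100, 33, 11, 3.7, 1.2 and 0 nM were then injected one-shot in PBS pH 7.4 containing 0.01% Tween-20 at 25° C, with 90 s of association at 100 μL/min and 1200 s of dissociation. The dissociation constant (KD) was calculated as kd/ka from a global Langmuir fit of double-referenced data.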

human SIRP-α v2 [15] = biological target: T11, human SIRP-α v2; assay: SPR, antibody on GLC chip
Procedure, shortened: as §3

NOD mouse SIRP-α = biological target: T12, NOD mouse SIRP-α (mouse (NOD strain)); assay: SPR, antibody on GLC chip
T12 chain: T4 chain
Procedure, shortened: as §3

BL6 mouse SIRP-α = biological target: T13, BL6 mouse SIRP-α (mouse (C57BL/6 strain), UniProt P97797 32-148); assay: SPR, antibody on GLC chip
T13 construct: also called C57BL/6
T13 sequence: T5 sequence
Procedure, shortened: as §3

BALBc mouse SIRP-α = biological target: T14, BALBc mouse SIRP-α (mouse (BALB/c strain)); assay: SPR, antibody on GLC chip
T14 chain: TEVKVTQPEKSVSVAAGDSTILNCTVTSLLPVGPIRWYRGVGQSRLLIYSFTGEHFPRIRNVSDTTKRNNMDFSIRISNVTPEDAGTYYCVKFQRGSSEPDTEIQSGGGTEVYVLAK
Procedure, shortened: as §3

human SIRPβ isoform 1 [16] = biological target: T15, human SIRPβ isoform 1 (human, UniProt O00241 30-148); assay: SPR, antibody on GLC chip
T15 construct: also called Beta; Human SIRPb
Procedure, shortened: as §3
T15 sequence (O00241 30-148 limits assumed): as the sequence (O00241 30-148 limits assumed) above

human SIRPγ isoform 1 = biological target: T16, human SIRPγ isoform 1 (human, UniProt Q9P1W8 29-147); assay: SPR, antibody on GLC chip; fitted KD (M) in Table Q; weak binding, 23.9 nM
T16 construct: also called Gamma; Human SIRPg
T16 sequence (Q9P1W8 29-147 limits assumed): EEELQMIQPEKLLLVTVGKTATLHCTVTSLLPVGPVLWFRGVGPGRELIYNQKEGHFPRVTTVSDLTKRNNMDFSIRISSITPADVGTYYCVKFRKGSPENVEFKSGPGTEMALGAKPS
Experimental: All experiments were performed at 25° C. using a SPR-based ProteOn XPR36 biosensor (BioRad, Inc, Hercules, Calif.) equipped with GLC or NLC sensor chips. […] Purification was carried out by standard Protein A affinity column chromatography and eluted antibodies were stored in PBS buffer.
For the method using GLC chip, the analytes were injected and flowed over anti-SIRPα antibodies immobilized (˜1000 RUs) on GLC chips using Proteon™ Amine Coupling Kit. For the immobilization step, GLC chip was activated with EDAC/Sulpho-NHS 1:1 (Biorad) diluted 1/100 for 300 s at 25 μL/min. Anti-SIRPα antibodies were diluted to 80 nM concentration in 10 mM sodium acetate buffer pH 4.5 and immobilized to the chip at 30 μL/min for 50 s. Chip was inactivated with ethanolamine for 300 s at 25 μL/min. The analytes (e.g., SIRP-α from different species, SIRP-β, SIRP-γ) were injected in a “one-shot” kinetic mode at nominal concentrations of 100, 33, 11, 3.7, 1.2 and 0 nM. Association times were monitored for 90 s at 100 μL/min, and dissociation times were monitored for 1200 s. The surfaces were regenerated with a 2:1 v/v blend of Pierce IgG elution buffer/4M NaCl.

human SIRPβ isoform 1 [17] = biological target: T15, human SIRPβ isoform 1; assay: SPR Koff +/-
Procedure, shortened: as §2

human SIRP-α v1 [18] = biological target: T10, human SIRP-α v1; assay: SPR; fitted KD column of Table P
Procedure, shortened: as §2

human SIRP-α v1 [19] = biological target: T10, human SIRP-α v1; assay: SPR Koff +/-
Procedure, shortened: as §2

[20] = biological target: T17, human SIRP-α v1 D1 domain (human, UniProt P78324 31-149); assay: SPR, antibody immobilised on GLC chip; sentence of the text that cites Table M
T17 construct: biotinylated and captured on avidin in the ELISA; also called human v1
Procedure, shortened: as §3
T17 sequence (P78324 31-149 limits assumed): as the sequence (P78324 31-149 limits assumed) above

[21] = biological target: T18, human SIRP-α v2 D1 domain (human); assay: as above
T18 construct: biotinylated and captured on avidin in the ELISA; also called human v2
Procedure, shortened: as §3

B1: S45 (scFv, V domains shown)
VH: AVTLDESGGGLQTPGGALSLVCKASGFTFSSYAMGWVRQAPGKGLEWVAGIDDDGSTANYGPAVKGRATISRDNGQSTVRLQLNNPRAEDSGTYFCAKASVTGWSAHISGRLDTWGHGTEVIVSS
VL: ALTQPASVSANPGETVKITCSGGGIYYYGWYQQKSPGSAPVTLIYENDKRPSDIPSRFSGSTSGSTNTFTITGVQAEDEAVYYCGGYDSNTTSGIFGAGTTLTVL
notes: also called clone 45; scFv-Fc form of AB45
[1]
  binding result: no binding (tested: Koff > 5 × 10^3 (legend))
[2]
  binding result: no binding (tested: Koff > 5 × 10^3 (legend))
[3]
  binding result: no binding (tested: Koff > 5 × 10^3 (legend))
[4]
  binding result: no binding (tested: Koff > 5 × 10^3 (legend))
[5]
  binding result: no binding (tested: Koff > 5 × 10^3 (legend))
[6]
  koff: 4.76e-05 s⁻¹

B2: S194 (scFv, V domains shown)
VH: DVQLVESGGGVVRPGESLRLSCAASGFTFRNYGMSWVRQAPGEGLEWVSASSGSGSTYYADSVKGRFTISRDNSKNTLYLQMNSLRAEDTAIYYCAKVTWNNFFDYWGLGTLVTVSS
VL: EIVLAQSPDTLSVSPGERATLTCRASQDVAGKLAWYQQKPGQAPRLLIHATSSRADGIPARFSGSGSGTEFTLTITGLQSEDFAVYYCQQHYDWSPLTFGGGTKVEIK
[7]
  binding result: no binding (tested: Koff > 5 × 10^3 (legend))
[5]
  binding result: no binding (tested: Koff > 5 × 10^3 (legend))
Human SIRPβ isoform 1 [8]
  binding result: no binding (tested: Koff > 5 × 10^3 (legend))
[6]
  koff: 0.00111 s⁻¹
[9]
  koff: 0.00117 s⁻¹
[10]
  koff: 0.00131 s⁻¹
[11]
  koff: 0.00111 s⁻¹

B3: antibody 136 (antibody, V domains shown)
VH: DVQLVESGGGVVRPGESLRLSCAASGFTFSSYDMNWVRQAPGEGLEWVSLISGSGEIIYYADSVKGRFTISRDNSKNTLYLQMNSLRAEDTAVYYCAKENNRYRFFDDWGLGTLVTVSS
VL: ETVLTQSPGTLTLSPGERATLTCRASQSVYTYLAWYQEKPGQAPRLLIYGASSRATGIPDRFSGSGSGTEFTLTISSLQSEDFAVYYCQQYYDRPPLTFGGGTKVEIK
notes: also called AB136; S136
Human SIRP-α v1 [12]
  Kd: 0.458 nM
Human SIRP-α v2 [13]
  Kd: 3.22 nM
Human SIRP-α v1 [14]
  Kd: 0.458 nM
Human SIRP-α v2 [15]
  Kd: 1.63 nM
NOD mouse SIRP-α
  Kd: 0.554 nM
BL6 mouse SIRP-α
  Kd: 12.7 nM
BALBc mouse SIRP-α
  Kd: 0.35 nM
Human SIRPβ isoform 1 [16]
  Kd: 4.35 nM
Human SIRPγ isoform 1
  Kd: 23.9 nM

B4: antibody 213 (antibody, V domains shown)
VH: DVQLVESGGGVVRPGESLRLSCEASGFTFRNYYMTWVRQAPGEGLEWVSTISDTGDTAYYADSVKGRFTISRDNSKNSLYLQMNSLRADDTAIYYCAKSWIWWTFFDYWGLGTLVTVSS
VL: ALTQPASVSANLGGTVEITCSGGNSNHYGWYQQKSPGSAPVTLIYADTNRPSNIPSRFSGSTSGSTTTLTITGVQAEDEAVYYCGGSSTGDGIFGAGTTLTVL
notes: also called S213
Human SIRP-α v2 [13]
  Kd: 1.69 nM
Human SIRPβ isoform 1 [17]
  binding result: no binding
Human SIRP-α v1 [18]
  Kd: 6.05 nM

B5: antibody 214 (antibody, V domains shown)
VH: B4 VH with G8E, Y32S, D89E
VL: B4 VL with T67S
notes: also called S214
Human SIRP-α v1 [19]
  binding result: no binding
Human SIRPβ isoform 1 [17]
  binding result: no binding

B6: 119 antibody variant with mutated heavy and light chains (antibody, human IgG1, V domains shown)
VH: EVQLLESGGGVVQPGGSLRLSCAASGFSFSNFAVTWVRQAPGKGLEWVSTIGSGDTYYADSVKGRFTISRDNSKNTLYLQMNSLRAEDTAVYYCAKDSTVSWSGDFFDYWGQGTLVTVSS
VL: EIVLTQSPATLSVSPGERATLSCRASQNVKNDLAWYQQKPGQAPRLLIYAARIRETGIPARFSGSGSGTEFTLTISSLQSEDFAVYYCQQYYDWPPFTFGGGTKVEIK
notes: human IgG1 with L234A, L235A, G237A, N297A
[20]
  Kd: 0.317 nM
[21]
  Kd: 0.0875 nM
